Target: T1, FcγRIIIa extracellular domain (UniProt P08637 17-208, limits assumed)
T1 construct: extracellular domain; Purified over HisTrap, so a His tag is implied
Assay: SPR (Biacore T200), half molecule captured via biotinylated antigen peptide on CAP chip, FcγR as analyte

T1 sequence (P08637 17-208 limits assumed): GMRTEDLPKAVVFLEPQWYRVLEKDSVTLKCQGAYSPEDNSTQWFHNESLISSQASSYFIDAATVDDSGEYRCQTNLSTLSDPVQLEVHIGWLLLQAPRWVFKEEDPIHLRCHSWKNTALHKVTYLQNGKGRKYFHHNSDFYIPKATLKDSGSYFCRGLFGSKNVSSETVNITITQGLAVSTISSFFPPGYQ

binding result	Binder
no binding	MRAH-DA303v2/MRAL-k0 (antibody, human IgG1, kappa, Antibody-half molecule (one H chain, one L chain); L chain MRAL-k0; also called A1; antibody-half molecule A1) heavy: QVQLQESGPGLVRPSQTLSLTCTVSGYSITSDHAWSWVRQPPGRGLEWIGYISYSGITTYNPSLKSRVTMLRDTSKNQFSLRLSSVTAADTAVYYCARSLARTTAMDYWGQGSLVTVSSASTKGPSVFPLAPSSKSTSGGTAALGCLVKDYFPEPVTVSWNSGALTSGVHTFPAVLQSSGLYSLSSVVTVPSSSLGTQTYICNVNHKPSNTKVDKKVEPKSCDKTHTSPPSPAPEYQWGPMVFLFPPKPKDTLMISRTPEVTCVVVDVSDEEPEVKFNWYVDGVEVHNAKTKPREEQYNATYRVVSVLTVLHQDWLNGKEYKCKVSNKALPAPIEKTISKAKGQPREPQVYTLPPSRKELTKNQVSLTCLVKGFYPSDIAVEWESNGQPENNYKTTPPYLDSDGSFFLYSDLTVDKSRWQQGNVFSCSVMHEALHNHYTQKSLSLSP light: not shown
no binding	MRAH-DA424v2/MRAL-k0 (antibody, human IgG1, kappa, Antibody-half molecule (one H chain, one L chain); also called antibody-half molecule A4) heavy: QVQLQESGPGLVRPSQTLSLTCTVSGYSITSDHAWSWVRQPPGRGLEWIGYISYSGITTYNPSLKSRVTMLRDTSKNQFSLRLSSVTAADTAVYYCARSLARTTAMDYWGQGSLVTVSSASTKGPSVFPLAPSSKSTSGGTAALGCLVKDYFPEPVTVSWNSGALTSGVHTFPAVLQSSGLYSLSSVVTVPSSSLGTQTYICNVNHKPSNTKVDKKVEPKSCDKTHTSPPSPAPEYQWGPMVFLFPPKPKDTLMISRTPEVTCVVVDVSDEEPEVKFNWYVDGVEVHNAKTKPREEQYNATYRVVSVLTVLHQDWLNGKEYKCKVSNKALPAPIEKTISKAKGQPREPQVYTLPPSRKNLTKNQVSLTCLVKGFYPSDIAVEWESNGQPENNYKTTPPYLDSDGSFFLYSDLTVDKSRWQQGNVFSCSVMHEALHNHYTQKSLSLSP light: not shown
no binding	MRAH-DA430v2/MRAL-k0 (antibody, human IgG1, kappa, Antibody-half molecule (one H chain, one L chain); also called A5; antibody-half molecule A5) heavy: QVQLQESGPGLVRPSQTLSLTCTVSGYSITSDHAWSWVRQPPGRGLEWIGYISYSGITTYNPSLKSRVTMLRDTSKNQFSLRLSSVTAADTAVYYCARSLARTTAMDYWGQGSLVTVSSASTKGPSVFPLAPSSKSTSGGTAALGCLVKDYFPEPVTVSWNSGALTSGVHTFPAVLQSSGLYSLSSVVTVPSSSLGTQTYICNVNHKPSNTKVDKKVEPKSCDKTHTSPPSPAPEYQWGPMVFLFPPKPKDTLMISRTPEVTCVVVDVSDEEPEVKFNWYVDGVEVHNAKTKPREEQYNATYRVVSVLTVLHQDWLNGKEYKCKVSNKALPAPIEKTISKAKGQPREPQVYTLPPSRKLLTKNQVSLTCLVKGFYPSDIAVEWESNGQPENNYKTTPPYLDSDGSFFLYSDLTVDKSRWQQGNVFSCSVMHEALHNHYTQKSLSLSP light: not shown
no binding	MRAH-DA402v2/MRAL-k0 (antibody, human IgG1, kappa, Antibody-half molecule (one H chain, one L chain); also called A2; antibody-half molecule A2) heavy: QVQLQESGPGLVRPSQTLSLTCTVSGYSITSDHAWSWVRQPPGRGLEWIGYISYSGITTYNPSLKSRVTMLRDTSKNQFSLRLSSVTAADTAVYYCARSLARTTAMDYWGQGSLVTVSSASTKGPSVFPLAPSSKSTSGGTAALGCLVKDYFPEPVTVSWNSGALTSGVHTFPAVLQSSGLYSLSSVVTVPSSSLGTQTYICNVNHKPSNTKVDKKVEPKSCDKTHTSPPSPAPEYQWGPMVFLFPPKPKDTLMISRTPEVTCVVVDVSDEEPEVKFNWYVDGVEVHNAKTKPREEQYNATYRVVSVLTVLHQDWLNGKEYKCKVSNKALPAPIEKTISKAKGQPREPQVYTLPPSRKELTKNQVSLTCLVKGFYPSDIAVEWESNGQPENNYKTTPPYLDSDGSFFLYSHLTVDKSRWQQGNVFSCSVMHEALHNHYTQKSLSLSP light: not shown
no binding	MRAH-DB220v2/MRAL-k0 (antibody, human IgG1, kappa, Antibody-half molecule (one H chain, one L chain); also called B1; antibody-half molecule B1) heavy: QVQLQESGPGLVRPSQTLSLTCTVSGYSITSDHAWSWVRQPPGRGLEWIGYISYSGITTYNPSLKSRVTMLRDTSKNQFSLRLSSVTAADTAVYYCARSLARTTAMDYWGQGSLVTVSSASTKGPSVFPLAPSSKSTSGGTAALGCLVKDYFPEPVTVSWNSGALTSGVHTFPAVLQSSGLYSLSSVVTVPSSSLGTQTYICNVNHKPSNTKVDKKVEPKSCDKTHTSPPSPAPELLGGPSVFLFPPKPKDTLMISRTPEVTCVVVDVSHEEPEVKFNWYVDGVEVHNAKTKPREEQYNSTYRVVSVLTVLHQDWLNGKEYKCKVSNDALPMPIEETISKAKGQPREPQVYTLPPSRDELTKNQVSLTCLVKGFYPSDIAVEWESNGQPENNYKTTPPYLDSDGSFFLYSDLTVDKSRWQQGNVFSCSVMHEALHNHYTQESLSLSP light: not shown
